{
  "source": "paper PMC8461876",
  "about": "“Automation assisted anaerobic phenotyping for metabolic engineering” (Microbial Cell Factories, 2021)",
  "proteins": {"B1": {"name": "enoate reductase YqjM (Bs-YqjM) (Bacillus subtilis subsp. subtilis str. 168) (protein)", "chain": "MARKLFTPITIKDMTLKNRIVMSPMCMYSSHEKDGKLTPFHMAHYISRAIGQVGLIIVEASAVNPQGRITDQDLGIWSDEHIEGFAKLTEQVKEQGSKIGIQLAHAGRKAELEGDIFAPSAIAFDEQSATPVEMSAEKVKETVQEFKQAAARAKEAGFDVIEIHAAHGYLIHEFLSPLSNHRTDEYGGSPENRYRFLREIIDEVKQVWDGPLFVRVSASDYTDKGLDIADHIGFAKWMKEQGVDLIDCSSGALVHADINVFPGYQVSFAEKIREQADMATGAVGMITDGSMAEEILQNGRADLIFIGRELLRDPFFARTAAKQLNTEIPAPVQYERGW", "notes": "full gene, N-terminal 6xHis tag (p15TvL), tag cleavage not mentioned; expressed in E. coli LOBSTR BL21(DE3); FMN loaded"}},
  "substrate": "O=C1C=CCCC1",
  "assay": "purified protein",
  "type": "biochemical, Bacillus subtilis",
  "conditions": "0.15 mM NADPH, 40 mM HEPES pH 7.5, 35 °C, anaerobic (glucose oxidase/glucose), 15 nM enzyme",
  "data": [
    {"protein": "B1", "values": [
      {"measurement": "Km", "result": "350 ± 60", "unit": "µM"}
    ]}
  ]
}
